Patent US20250368745A1 (published 2025)

B1: SA301a HC-V100aS (antibody, name in Kabat numbering, V domains shown)
VH: QVQLQESGPGLVKPSQTLSLTCTVSGYSITSDYNSHWIRQPPGKGLEWIGYIHYSGSTNYNPSLKSRVTISRDTSKNQFSLKLSSVTAADTAVYYCARNYGSIYSNYFDYWGQGTLVTVSS
VL: EIVLTQSPATLSLSPGERATLSCSASSSVSYMYWYQQKPGQAPRPLIYRTSNLASGIPARFSGSGSGTDFTLTISSLEPEDFAVYYCQQYHSYPTFGGGTKVEIK
notes: IgG1 kappa
B2: SA301a HC-V100aT (antibody, name in Kabat numbering, V domains shown)
VH: QVQLQESGPGLVKPSQTLSLTCTVSGYSITSDYNSHWIRQPPGKGLEWIGYIHYSGSTNYNPSLKSRVTISRDTSKNQFSLKLSSVTAADTAVYYCARNYGSIYTNYFDYWGQGTLVTVSS
VL: EIVLTQSPATLSLSPGERATLSCSASSSVSYMYWYQQKPGQAPRPLIYRTSNLASGIPARFSGSGSGTDFTLTISSLEPEDFAVYYCQQYHSYPTFGGGTKVEIK
notes: IgG1 kappa
B3: SA301a HC-V100aG (antibody, name in Kabat numbering, V domains shown)
VH: QVQLQESGPGLVKPSQTLSLTCTVSGYSITSDYNSHWIRQPPGKGLEWIGYIHYSGSTNYNPSLKSRVTISRDTSKNQFSLKLSSVTAADTAVYYCARNYGSIYGNYFDYWGQGTLVTVSS
VL: EIVLTQSPATLSLSPGERATLSCSASSSVSYMYWYQQKPGQAPRPLIYRTSNLASGIPARFSGSGSGTDFTLTISSLEPEDFAVYYCQQYHSYPTFGGGTKVEIK
notes: IgG1 kappa
B4: SA301a HC-I99F (antibody, name in Kabat numbering, V domains shown)
VH: QVQLQESGPGLVKPSQTLSLTCTVSGYSITSDYNSHWIRQPPGKGLEWIGYIHYSGSTNYNPSLKSRVTISRDTSKNQFSLKLSSVTAADTAVYYCARNYGSFYVNYFDYWGQGTLVTVSS
VL: EIVLTQSPATLSLSPGERATLSCSASSSVSYMYWYQQKPGQAPRPLIYRTSNLASGIPARFSGSGSGTDFTLTISSLEPEDFAVYYCQQYHSYPTFGGGTKVEIK
notes: IgG1 kappa
B5: SA301a HC-I99G (antibody, name in Kabat numbering, V domains shown)
VH: QVQLQESGPGLVKPSQTLSLTCTVSGYSITSDYNSHWIRQPPGKGLEWIGYIHYSGSTNYNPSLKSRVTISRDTSKNQFSLKLSSVTAADTAVYYCARNYGSGYVNYFDYWGQGTLVTVSS
VL: EIVLTQSPATLSLSPGERATLSCSASSSVSYMYWYQQKPGQAPRPLIYRTSNLASGIPARFSGSGSGTDFTLTISSLEPEDFAVYYCQQYHSYPTFGGGTKVEIK
notes: IgG1 kappa
B6: SA301a HC-I99H (antibody, name in Kabat numbering, V domains shown)
VH: QVQLQESGPGLVKPSQTLSLTCTVSGYSITSDYNSHWIRQPPGKGLEWIGYIHYSGSTNYNPSLKSRVTISRDTSKNQFSLKLSSVTAADTAVYYCARNYGSHYVNYFDYWGQGTLVTVSS
VL: EIVLTQSPATLSLSPGERATLSCSASSSVSYMYWYQQKPGQAPRPLIYRTSNLASGIPARFSGSGSGTDFTLTISSLEPEDFAVYYCQQYHSYPTFGGGTKVEIK
notes: IgG1 kappa
B7: SA301a HC-I99M (antibody, name in Kabat numbering, V domains shown)
VH: QVQLQESGPGLVKPSQTLSLTCTVSGYSITSDYNSHWIRQPPGKGLEWIGYIHYSGSTNYNPSLKSRVTISRDTSKNQFSLKLSSVTAADTAVYYCARNYGSMYVNYFDYWGQGTLVTVSS
VL: EIVLTQSPATLSLSPGERATLSCSASSSVSYMYWYQQKPGQAPRPLIYRTSNLASGIPARFSGSGSGTDFTLTISSLEPEDFAVYYCQQYHSYPTFGGGTKVEIK
notes: IgG1 kappa
B8: SA301a HC-I99N (antibody, name in Kabat numbering, V domains shown)
VH: QVQLQESGPGLVKPSQTLSLTCTVSGYSITSDYNSHWIRQPPGKGLEWIGYIHYSGSTNYNPSLKSRVTISRDTSKNQFSLKLSSVTAADTAVYYCARNYGSNYVNYFDYWGQGTLVTVSS
VL: EIVLTQSPATLSLSPGERATLSCSASSSVSYMYWYQQKPGQAPRPLIYRTSNLASGIPARFSGSGSGTDFTLTISSLEPEDFAVYYCQQYHSYPTFGGGTKVEIK
notes: IgG1 kappa
B9: SA301a HC-I99Q (antibody, name in Kabat numbering, V domains shown)
VH: QVQLQESGPGLVKPSQTLSLTCTVSGYSITSDYNSHWIRQPPGKGLEWIGYIHYSGSTNYNPSLKSRVTISRDTSKNQFSLKLSSVTAADTAVYYCARNYGSQYVNYFDYWGQGTLVTVSS
VL: EIVLTQSPATLSLSPGERATLSCSASSSVSYMYWYQQKPGQAPRPLIYRTSNLASGIPARFSGSGSGTDFTLTISSLEPEDFAVYYCQQYHSYPTFGGGTKVEIK
notes: IgG1 kappa
B10: SA301a HC-I99R (antibody, name in Kabat numbering, V domains shown)
VH: QVQLQESGPGLVKPSQTLSLTCTVSGYSITSDYNSHWIRQPPGKGLEWIGYIHYSGSTNYNPSLKSRVTISRDTSKNQFSLKLSSVTAADTAVYYCARNYGSRYVNYFDYWGQGTLVTVSS
VL: EIVLTQSPATLSLSPGERATLSCSASSSVSYMYWYQQKPGQAPRPLIYRTSNLASGIPARFSGSGSGTDFTLTISSLEPEDFAVYYCQQYHSYPTFGGGTKVEIK
notes: IgG1 kappa
B11: SA301a HC-I99S (antibody, name in Kabat numbering, V domains shown)
VH: QVQLQESGPGLVKPSQTLSLTCTVSGYSITSDYNSHWIRQPPGKGLEWIGYIHYSGSTNYNPSLKSRVTISRDTSKNQFSLKLSSVTAADTAVYYCARNYGSSYVNYFDYWGQGTLVTVSS
VL: EIVLTQSPATLSLSPGERATLSCSASSSVSYMYWYQQKPGQAPRPLIYRTSNLASGIPARFSGSGSGTDFTLTISSLEPEDFAVYYCQQYHSYPTFGGGTKVEIK
notes: IgG1 kappa
B12: SA301a HC-I99V (antibody, name in Kabat numbering, V domains shown)
VH: QVQLQESGPGLVKPSQTLSLTCTVSGYSITSDYNSHWIRQPPGKGLEWIGYIHYSGSTNYNPSLKSRVTISRDTSKNQFSLKLSSVTAADTAVYYCARNYGSVYVNYFDYWGQGTLVTVSS
VL: EIVLTQSPATLSLSPGERATLSCSASSSVSYMYWYQQKPGQAPRPLIYRTSNLASGIPARFSGSGSGTDFTLTISSLEPEDFAVYYCQQYHSYPTFGGGTKVEIK
notes: IgG1 kappa
B13: SA301a HC-N100bD (antibody, name in Kabat numbering, V domains shown)
VH: QVQLQESGPGLVKPSQTLSLTCTVSGYSITSDYNSHWIRQPPGKGLEWIGYIHYSGSTNYNPSLKSRVTISRDTSKNQFSLKLSSVTAADTAVYYCARNYGSIYVDYFDYWGQGTLVTVSS
VL: EIVLTQSPATLSLSPGERATLSCSASSSVSYMYWYQQKPGQAPRPLIYRTSNLASGIPARFSGSGSGTDFTLTISSLEPEDFAVYYCQQYHSYPTFGGGTKVEIK
notes: IgG1 kappa
B14: SA301a HC-N100bH (antibody, name in Kabat numbering, V domains shown)
VH: QVQLQESGPGLVKPSQTLSLTCTVSGYSITSDYNSHWIRQPPGKGLEWIGYIHYSGSTNYNPSLKSRVTISRDTSKNQFSLKLSSVTAADTAVYYCARNYGSIYVHYFDYWGQGTLVTVSS
VL: EIVLTQSPATLSLSPGERATLSCSASSSVSYMYWYQQKPGQAPRPLIYRTSNLASGIPARFSGSGSGTDFTLTISSLEPEDFAVYYCQQYHSYPTFGGGTKVEIK
notes: IgG1 kappa
B15: SA301a HC-N100bS (antibody, name in Kabat numbering, V domains shown)
VH: QVQLQESGPGLVKPSQTLSLTCTVSGYSITSDYNSHWIRQPPGKGLEWIGYIHYSGSTNYNPSLKSRVTISRDTSKNQFSLKLSSVTAADTAVYYCARNYGSIYVSYFDYWGQGTLVTVSS
VL: EIVLTQSPATLSLSPGERATLSCSASSSVSYMYWYQQKPGQAPRPLIYRTSNLASGIPARFSGSGSGTDFTLTISSLEPEDFAVYYCQQYHSYPTFGGGTKVEIK
notes: IgG1 kappa
B16: SA301a HC-N100bV (antibody, name in Kabat numbering, V domains shown)
VH: QVQLQESGPGLVKPSQTLSLTCTVSGYSITSDYNSHWIRQPPGKGLEWIGYIHYSGSTNYNPSLKSRVTISRDTSKNQFSLKLSSVTAADTAVYYCARNYGSIYVVYFDYWGQGTLVTVSS
VL: EIVLTQSPATLSLSPGERATLSCSASSSVSYMYWYQQKPGQAPRPLIYRTSNLASGIPARFSGSGSGTDFTLTISSLEPEDFAVYYCQQYHSYPTFGGGTKVEIK
notes: IgG1 kappa
B17: SA301a HC-V100aE (antibody, name in Kabat numbering, V domains shown)
VH: QVQLQESGPGLVKPSQTLSLTCTVSGYSITSDYNSHWIRQPPGKGLEWIGYIHYSGSTNYNPSLKSRVTISRDTSKNQFSLKLSSVTAADTAVYYCARNYGSIYENYFDYWGQGTLVTVSS
VL: EIVLTQSPATLSLSPGERATLSCSASSSVSYMYWYQQKPGQAPRPLIYRTSNLASGIPARFSGSGSGTDFTLTISSLEPEDFAVYYCQQYHSYPTFGGGTKVEIK
notes: IgG1 kappa
B18: SA301a HC-V100aL (antibody, name in Kabat numbering, V domains shown)
VH: QVQLQESGPGLVKPSQTLSLTCTVSGYSITSDYNSHWIRQPPGKGLEWIGYIHYSGSTNYNPSLKSRVTISRDTSKNQFSLKLSSVTAADTAVYYCARNYGSIYLNYFDYWGQGTLVTVSS
VL: EIVLTQSPATLSLSPGERATLSCSASSSVSYMYWYQQKPGQAPRPLIYRTSNLASGIPARFSGSGSGTDFTLTISSLEPEDFAVYYCQQYHSYPTFGGGTKVEIK
notes: IgG1 kappa
B19: SA301a HC-V100aM (antibody, name in Kabat numbering, V domains shown)
VH: QVQLQESGPGLVKPSQTLSLTCTVSGYSITSDYNSHWIRQPPGKGLEWIGYIHYSGSTNYNPSLKSRVTISRDTSKNQFSLKLSSVTAADTAVYYCARNYGSIYMNYFDYWGQGTLVTVSS
VL: EIVLTQSPATLSLSPGERATLSCSASSSVSYMYWYQQKPGQAPRPLIYRTSNLASGIPARFSGSGSGTDFTLTISSLEPEDFAVYYCQQYHSYPTFGGGTKVEIK
notes: IgG1 kappa
B20: SA301a HC-V100aP (antibody, name in Kabat numbering, V domains shown)
VH: QVQLQESGPGLVKPSQTLSLTCTVSGYSITSDYNSHWIRQPPGKGLEWIGYIHYSGSTNYNPSLKSRVTISRDTSKNQFSLKLSSVTAADTAVYYCARNYGSIYPNYFDYWGQGTLVTVSS
VL: EIVLTQSPATLSLSPGERATLSCSASSSVSYMYWYQQKPGQAPRPLIYRTSNLASGIPARFSGSGSGTDFTLTISSLEPEDFAVYYCQQYHSYPTFGGGTKVEIK
notes: IgG1 kappa

Experiments:
[1] = target: T1, human IL-18BP (human, UniProt O95998 31-194); experiment: BLI, apparent KD
T1 construct: UniProt printed as 095998; also called hIL-18BP
T1 sequence: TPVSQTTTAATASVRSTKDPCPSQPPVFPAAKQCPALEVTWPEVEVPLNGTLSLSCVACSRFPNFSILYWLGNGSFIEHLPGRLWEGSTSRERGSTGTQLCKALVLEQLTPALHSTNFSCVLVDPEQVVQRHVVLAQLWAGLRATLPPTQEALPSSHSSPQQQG

[2] = target: T2, cynomolgus IL-18BP (cynomolgus monkey); experiment: BLI, apparent KD
T2 construct: also called cyno IL-18BP; cyIL-18BP
T2 chain: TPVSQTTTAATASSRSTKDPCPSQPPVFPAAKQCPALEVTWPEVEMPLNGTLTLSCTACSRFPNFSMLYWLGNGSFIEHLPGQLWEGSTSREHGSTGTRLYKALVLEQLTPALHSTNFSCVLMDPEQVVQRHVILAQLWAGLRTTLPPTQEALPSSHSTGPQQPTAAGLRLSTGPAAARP

Binder | Kd [1] [nM] | Kd [2] [nM]
B1 | 0.28 | 0.53
B2 | 0.27 | 0.06
B3 | 0.55 | 0.92
B4 | 0.64 | 0.97
B5 | 1.04 | 0.67
B6 | 0.61 | 0.83
B7 | 0.21 | 0.37
B8 | 0.55 | 0.66
B9 | 0.25 | 0.44
B10 | 0.46 | 0.69
B11 | 0.56 | 0.53
B12 | 0.05 | 0.33
B13 | 2.3 | 0.96
B14 | 0.69 | 1.03
B15 | 0.49 | 0.09
B16 | 2.16 | 1.16
B17 | 0.51 | 0.22
B18 | 2.54 | 0.81
B19 | 0.8 | 0.22
B20 | 0.49 | 0.15
